The source of these data is patent publication US9109237B2, “Method of preparing piceatannol using bacterial cytochrome P450 and composition therefor” (priority 2008, dated 2015).

One series has as its target T1, human CYP1A2 (Homo sapiens, UniProt P05177).
T1 sequence (P05177 1-516): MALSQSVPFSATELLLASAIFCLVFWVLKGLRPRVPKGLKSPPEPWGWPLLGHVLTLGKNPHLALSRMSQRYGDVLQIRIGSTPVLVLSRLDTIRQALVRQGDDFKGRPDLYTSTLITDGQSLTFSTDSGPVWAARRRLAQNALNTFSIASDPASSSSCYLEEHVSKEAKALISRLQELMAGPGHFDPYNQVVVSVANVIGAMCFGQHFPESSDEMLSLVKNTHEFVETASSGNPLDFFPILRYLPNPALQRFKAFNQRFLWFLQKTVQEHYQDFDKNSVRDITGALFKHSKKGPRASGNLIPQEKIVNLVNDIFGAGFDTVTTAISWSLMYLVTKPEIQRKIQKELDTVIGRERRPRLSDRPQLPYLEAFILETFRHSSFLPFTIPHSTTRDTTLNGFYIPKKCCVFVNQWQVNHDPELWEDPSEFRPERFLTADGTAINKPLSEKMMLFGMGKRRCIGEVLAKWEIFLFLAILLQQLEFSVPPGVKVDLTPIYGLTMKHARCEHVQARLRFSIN
The conditions noted are these: cited from earlier work.

Series [1] can be described thus: Resveratrol metabolite profile by HPLC and GC-MS. It is filed as biochemical. Conditions: HPLC, UV 320 nm. On the procedure: (§1) Oxidation of trans-resveratrol, a substrate of human CYP1A2, by CYP102A1 was identified. Typical steady-state reactions for trans-resveratrol hydroxylation included 50 pmol P450 BM3 in 0.25 ml of a 100 mM potassium phosphate buffer (pH 7.4) were performed along with a specified amount of a substrate. To determine the kinetic parameter of several CYP102A1 mutants, 2 to 100 μM of trans-resveratrol was used. An NADPH-generating system was used to initiate reaction solutions (final concentrations: 10 mM glucose 6-phosphate, 0.5 mM NADP+, and 1 IU yeast glucose 6-phosphate per ml). Trans-resveratrol stocks (20 mM) were prepared in DMSO and diluted into the enzyme reactions with the final organic solvent concentration <1% (v/v). Reactions were generally incubated for 10 min at 37° C., and terminated with 105 μl of ice-cold acetic acid/methanol (95/5, v/v).
After centrifugation of the reaction mixture, the supernatant was analyzed by HPLC (Piver et al. 2004). Samples (30 μl) were injected into a Gemini C18 column (4.6 mm×150 mm, 5 μm, Phenomenex, Torrance, Calif.). The mobile phase A was water containing 87 mM of 0.5% acetic acid/acetonitrile (95/5, v/v); whereas the mobile phase B was acetonitrile/0.5% acetic acid (95/5, v/v). […] Eluates were detected by UV rays at 320 nm. […]

The nature of series [2]: Kinetic parameters of piceatannol formation (3'-hydroxylation of resveratrol). It is filed as biochemical. The procedure: as §1, with “Reactions were generally incubated for 10 min at 37° C., and terminated with 105 μl of ice-cold acetic acid/methanol (95/5, v/v).” left out
After centrifugation of the reaction mixture, the supernatant was analyzed by HPLC (Piver et al. 2004). […] Eluates were detected by UV rays at 320 nm.
Kinetic parameters (Km and kcat) were determined using nonlinear regression analysis with GraphPad PRISM software (GraphPad, San Diego, Calif., USA). The data were analyzed using the standard Michaelis-Menten equation: v=kcat[E][S]/([S]+Km), where the velocity of the reaction is a function of the rate-limiting step in turnover (kcat), the enzyme concentration ([E]), substrate concentration ([S]), and the Michaelis constant (Km).

Series [3] in a line: Rates of piceatannol formation (trans-resveratrol hydroxylation) at fixed substrate concentration, HPLC. It is filed as biochemical. Conditions: fixed substrate concentration 100 μM trans-resveratrol. The procedure: as §1
After centrifugation of the reaction mixture, the supernatant was analyzed by HPLC (Piver et al. 2004). Samples (30 μl) were injected into a Gemini C18 column (4.6 mm×150 mm, 5 μm, Phenomenex, Torrance, Calif.). […] Eluates were detected by UV rays at 320 nm.
The ability of wild-type P450 BM3 and mutants of P450 BM3 to oxidize trans-resveratrol was measured at a fixed substance concentration (100 μM).

Turning to `Oc1ccc(C=Cc2cc(O)cc(O)c2)cc1` [Resveratrol, 3,4′,5-trihydroxystilbene], the “Inhibition of human CYP1A2 (in words)” value at human CYP1A2 was “substrate and inhibitor”. For the molecule `Oc1cc(O)cc(C=Cc2ccc(O)c(O)c2)c1` [Piceatannol, 3,5,3′,4′-tetrahydroxystilbene], the “Inhibition of human CYP1A2 (in words)” value at human CYP1A2 is “potent inhibitor”.

B1: human CYP1A2: Human cytochrome P450 1A2, prepared as disclosed by Kim et al. (2008c); comparison enzyme (protein, UniProt P05177 2-516, looked up)
Cytochrome P450 1A2: ALSQSVPFSATELLLASAIFCLVFWVLKGLRPRVPKGLKSPPEPWGWPLLGHVLTLGKNPHLALSRMSQRYGDVLQIRIGSTPVLVLSRLDTIRQALVRQGDDFKGRPDLYTSTLITDGQSLTFSTDSGPVWAARRRLAQNALNTFSIASDPASSSSCYLEEHVSKEAKALISRLQELMAGPGHFDPYNQVVVSVANVIGAMCFGQHFPESSDEMLSLVKNTHEFVETASSGNPLDFFPILRYLPNPALQRFKAFNQRFLWFLQKTVQEHYQDFDKNSVRDITGALFKHSKKGPRASGNLIPQEKIVNLVNDIFGAGFDTVTTAISWSLMYLVTKPEIQRKIQKELDTVIGRERRPRLSDRPQLPYLEAFILETFRHSSFLPFTIPHSTTRDTTLNGFYIPKKCCVFVNQWQVNHDPELWEDPSEFRPERFLTADGTAINKPLSEKMMLFGMGKRRCIGEVLAKWEIFLFLAILLQQLEFSVPPGVKVDLTPIYGLTMKHARCEHVQARLRFSIN
Consider B1, for which the “Metabolites produced on oxidation of resveratrol” value in series [1] is “two major metabolites: piceatannol and other hydroxylated products”. Besides, the “Kinetic parameters, result in words” value in series [2] is given as “kinetic parameters could not be obtained”.

B2: WT: BM3 wild type; bacterial cytochrome P450 BM3 (CYP102A1) from Bacillus megaterium, SEQ ID NO:16 (protein, listed as Bacillus megaterium)
chain: TIKEMPQPKTFGELKNLPLLNTDKPVQALMKIADELGEIFKFEAPGRVTRYLSSQRLIKEACDESRFDKNLSQALKFVRDFAGDGLFTSWTHEKNWKKAHNILLPSFSQQAMKGYHAMMVDIAVQLVQKWERLNADEHIEVPEDMTRLTLDTIGLCGFNYRFNSFYRDQPHPFITSMVRALDEAMNKLQRANPDDPAYDENKRQFQEDIKVMNDLVDKIIADRKASGEQSDDLLTHMLNGKDPETGEPLDDENIRYQIITFLIAGHETTSGLLSFALYFLVKNPHVLQKAAEEAARVLVDPVPSYKQVKQLKYVGMVLNEALRLWPTAPAFSLYAKEDTVLGGEYPLEKGDELMVLIPQLHRDKTIWGDDVEEFRPERFENPSAIPQHAFKPFGNGQRACIGQQFALHEATLVLGMMLKHFDFEDHTNYELDIKETLTLKPEGFVVKAKSKKIPLGGIPSPSTEQSAKKVRKKAENAHNTPLLVLYGSNMGTAEGTARDLADIAMSKGFAPQVATLDSHAGNLPREGAVLIVTASYNGHPPDNAKQFVDWLDQASADEVKGVRYSVFGCGDKNWATTYQKVPAFIDETLAAKGAENIADRGEADASDDFEGTYEEWREHMWSDVAAYFNLDIENSEDNKSTLSLQFVDSAADMPLAKMHGAFSTNVVASKELQQPGSARSTRHLEIELPKEASYQEGDHLGVIPRNYEGIVNRVTARFGLDASQQIRLEAEEEKLAHLPLAKTVSVEELLQYVELQDPVTRTQLRAMAAKTVCPPHKVELEALLEKQAYKEQVLAKRLTMLELLEKYPACEMKFSEFIALLPSIRPRYYSISSSPRVDEKQASITVSVVSGEAWSGYGEYKGIASNYLAELQEGDTITCFISTPQSEFTLPKDPETPLIMVGPGTGVAPFRGFVQARKQLKEQGQSLGEAHLYFGCRSPHEDYLYQEELENAQSEGIITLHTAFSRMPNQPKTYVQHVMEQDGKKLIELLDQGAHFYICGDGSQMAPAVEATLMKSYADVHQVSEADARLWLQQLEEKGRYAKDVWAG
As for B2, in series [1], the “Metabolites produced on oxidation of resveratrol” value is listed as “only one major metabolite”. Further, in series [3], the “Rate of piceatannol formation” value was 0.22 ± 0.01 nmol product/min/nmol P450.
